Experimental data published in patent publication US20140227295A1 (Bristol-Myers Squibb, published 2014).

Molecular target: mesothelin (UniProt Q13421 37-598, limits assumed)
Experiment: cell-based or functional assay

Sequence of mesothelin (Q13421 other isoform, or with tags, fused parts or gaps limits assumed): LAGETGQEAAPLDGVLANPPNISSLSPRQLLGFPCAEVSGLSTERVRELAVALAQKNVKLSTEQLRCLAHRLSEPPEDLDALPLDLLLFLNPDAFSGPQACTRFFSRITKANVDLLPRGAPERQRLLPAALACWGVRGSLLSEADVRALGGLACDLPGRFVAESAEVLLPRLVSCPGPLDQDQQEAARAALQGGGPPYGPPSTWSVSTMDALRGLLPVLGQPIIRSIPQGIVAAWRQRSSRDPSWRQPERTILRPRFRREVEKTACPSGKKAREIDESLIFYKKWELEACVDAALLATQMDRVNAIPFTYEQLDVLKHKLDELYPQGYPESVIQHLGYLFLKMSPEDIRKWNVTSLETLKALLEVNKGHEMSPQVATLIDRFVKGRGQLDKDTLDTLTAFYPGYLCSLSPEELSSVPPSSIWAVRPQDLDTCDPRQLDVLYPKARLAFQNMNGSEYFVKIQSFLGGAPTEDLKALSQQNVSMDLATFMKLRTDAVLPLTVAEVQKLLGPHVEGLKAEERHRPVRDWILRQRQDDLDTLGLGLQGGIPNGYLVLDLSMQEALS

EC50, inhibition of proliferation of N87 gastric cancer cells (3H thymidine incorporation assay): 0.2 nM
B1: conjugate (II-1), a conjugate of compound (III-1) and the anti-mesothelin antibody 6A4 (antibody, V domains shown)
VH: QVHLVESGGGVVQPGRSLRLSCVASGITFRIYGMHWVRQAPGKGLEWVAVLWYDGSHEYYADSVKGRFTISRDNSKNTLYLQMNSLRAEDTAIYYCARDGDYYDSGSPLDYWGQGTLVTVSS
VL: EIVLTQSPATLSLSPGERATLSCRASQSVSSYLAWYQQKPGQAPRLLIYDASNRATGIPARFSGSGSGTDFTLTISSLEPEDFAVYYCQQRSNWPLTFGGGTKVEIK
modifications: lysine ε-amino groups thiolated with 2-iminothiolane and linked to the maleimide of tubulysin drug-linker compound (III-1); sites and chain not stated
